Patent US10202584B2, “Red-shifted luciferase-luciferin pairs for enhanced bioluminescence” (The Regents of the University of California, priority 2016, dated 2019)

Tests used:
Test in all cases: purified protein, by the assay type
Conditions in all cases: other: apparent, 100 pM enzyme, substrate 0.78 to 50 μM, assay buffer pH 6.0, mean ± s.d., n = 3, 37.0 °C
[1] = system: O=c1c(Cc2ccccc2)nc2c(-c3ccccc3)[nH]c(-c3ccccc3)cn1-2
Description: (§1) The final concentrations of all enzymes were 100 pM. Substrate concentrations varied from 0.78 to 50 μM, and peak bioluminescence intensities at individual substrate concentrations were used to fit the Michaelis-Menten equation. Data are shown as mean and s.d. of three independent experiments.
(§2) DH10B cells containing corresponding pBAD plasmids were grown in 5 mL LB starter cultures containing ampicillin (100 μg/mL) at 37° C. and 250 rpm overnight. Each saturated overnight culture was diluted 100-fold into 2YT media containing the appropriate antibiotics and grown under the same conditions. When OD600 reached 0.7-0.9, the expression culture was induced with L-arabinose (0.2%, w/v %) and incubated at room temperature with shaking at 250 rpm for another 16 h. Cells were harvested by centrifugation at 4700 rpm for 15 min and lysed by sonication. The resulting cell lysate was clarified by centrifugation at 18,000 rpm for 30 min at 4° C. The supernatant was incubated with Ni-NTA agarose beads (Pierce) at 4° C. for 2 h. Agarose beads loaded to a plastic column were sequentially washed with 10 mL of wash buffer 1 (pH 8.0, 50 mM Tris HCl, 20 mM Imidazole, 300 mM NaCl, 1 mM DTT) and 10 mL of wash buffer 2 (pH 8.0, 50 mM Tris HCl, 50 mM Imidazole, 300 mM NaCl, 1 mM DTT), followed by elution with elution buffer (pH 8.0, 50 mM Tris HCl, 300 mM Imidazole, 300 mM NaCl, 1 mM DTT). Proteins were buffer-exchanged into Tris-HCl (50 mM, pH 7.4) containing 1 mM DTT using Thermo Scientific Snakeskin dialysis tubing, and next concentrated using 3-kDa Amicon Ultra Centrifugal Filters (EMD Millipore). Protein concentrations were determined using the Pierce Coomassie Bradford Protein Assay Kit (Thermo Fisher). For storage, glycerol was added to a final concentration of 50% (v/v) and the resultant mixtures were kept at −20° C.
(§3) A Synergy Mx Microplate Reader (BioTek) was used for all in vitro bioluminescence characterizations. For kinetics measurements, no emission filter or monochromator was used. […]

[2] = system: O=c1c(Cc2ccccc2)nc2c([Se]c3ccccc3)[nH]c(-c3ccccc3)cn1-2
Description: as §1, §2, §3

[3] = system: O=c1c(Cc2ccco2)nc2c(Cc3ccccc3)[nH]c(-c3ccccc3)cn1-2
Description: as §1, §2, §3

## NanoLuc luciferase (Oplophorus gracihrostris-derived, parent, SEQ ID NO: 1) (Oplophorus gracilirostris; A31E/A60N/A81I/F95D/I117V/K70R/L54V/L99Q/M102K/N193R/P142E/Q151K/Q38R/Q45L/V71I/Y165I)
[1]
  Km: 5.3 ± 0.2 µM
[2]
  Km: 17.8 ± 1.0 µM
[3]
  Km: 11.5 ± 0.6 µM
